Blank lines part the entries; values can stand above or below the binder they belong to. Numbered stars: 1 amine (or outer) side, 2 acyl side, 3 side chain; on linkers, the order of the positions; unused ones are H or OH. Square brackets hold non-standard residues; d marks the D form. Ends that are not written are not given here. * marks the point of attachment. O(CA) = ornithine chloroamidine, N=C(CCl)NCCC[C@H](N[*:1])C(=O)[*:2]; Orn(fluoroacetimidoyl) = N=C(CF)NCCC[C@H](N)C(=O)O; 2Naphthylsulfonyl = O=S(=O)(c1ccc2ccccc2c1)*; AEEA = NCCOCCOCC(=O)O
Legend:
Test in all cases: cell-based or functional assay
recombinant human PAD2 [1] = target: T1, recombinant human PAD2 (human, UniProt Q9Y2J8 1-665)
T1 sequence (Q9Y2J8 whole entry): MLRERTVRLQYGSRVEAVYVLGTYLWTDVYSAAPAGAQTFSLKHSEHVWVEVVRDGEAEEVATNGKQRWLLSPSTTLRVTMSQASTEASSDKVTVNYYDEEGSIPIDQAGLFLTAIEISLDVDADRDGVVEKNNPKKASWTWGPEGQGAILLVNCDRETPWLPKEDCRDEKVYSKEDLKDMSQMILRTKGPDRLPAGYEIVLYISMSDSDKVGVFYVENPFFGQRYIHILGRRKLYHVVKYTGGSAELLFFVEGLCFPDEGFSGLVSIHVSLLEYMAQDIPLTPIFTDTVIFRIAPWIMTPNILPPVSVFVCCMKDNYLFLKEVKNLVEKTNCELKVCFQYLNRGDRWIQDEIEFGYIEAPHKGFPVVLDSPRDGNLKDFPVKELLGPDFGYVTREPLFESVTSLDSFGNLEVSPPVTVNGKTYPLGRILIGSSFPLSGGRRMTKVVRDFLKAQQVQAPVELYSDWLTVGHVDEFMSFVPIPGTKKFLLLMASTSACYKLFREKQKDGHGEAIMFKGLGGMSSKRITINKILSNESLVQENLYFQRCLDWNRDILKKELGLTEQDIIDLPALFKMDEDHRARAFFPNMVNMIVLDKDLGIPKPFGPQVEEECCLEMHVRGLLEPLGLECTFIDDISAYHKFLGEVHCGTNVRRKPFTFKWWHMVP

recombinant human PAD4 [2] = target: T2, recombinant human PAD4 (human, UniProt Q9UM07 1-663)
T2 sequence (Q9UM07 whole entry): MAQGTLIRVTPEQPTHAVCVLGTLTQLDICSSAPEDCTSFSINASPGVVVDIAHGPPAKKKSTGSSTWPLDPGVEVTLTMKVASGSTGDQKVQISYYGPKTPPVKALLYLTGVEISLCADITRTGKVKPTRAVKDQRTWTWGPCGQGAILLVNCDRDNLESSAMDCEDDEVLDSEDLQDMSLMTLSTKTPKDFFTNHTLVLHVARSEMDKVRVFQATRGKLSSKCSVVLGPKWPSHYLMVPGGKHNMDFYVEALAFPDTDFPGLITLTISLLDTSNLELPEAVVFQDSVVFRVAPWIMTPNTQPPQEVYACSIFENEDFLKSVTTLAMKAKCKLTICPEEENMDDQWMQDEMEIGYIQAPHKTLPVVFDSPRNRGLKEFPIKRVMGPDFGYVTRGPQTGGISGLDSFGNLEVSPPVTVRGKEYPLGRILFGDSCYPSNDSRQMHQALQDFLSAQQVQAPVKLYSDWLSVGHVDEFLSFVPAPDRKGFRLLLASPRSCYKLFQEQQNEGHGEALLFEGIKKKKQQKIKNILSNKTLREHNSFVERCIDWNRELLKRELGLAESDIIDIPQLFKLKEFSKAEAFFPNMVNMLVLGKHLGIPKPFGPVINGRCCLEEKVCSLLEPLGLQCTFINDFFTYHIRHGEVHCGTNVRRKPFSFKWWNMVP

recombinant human PAD2 [3] = target: T1, recombinant human PAD2; remark: listed apart in the source
recombinant human PAD4 [4] = target: T2, recombinant human PAD4; remark: listed apart in the source
recombinant human PAD2 [5] = target: T1, recombinant human PAD2; remark: listed apart in the source
recombinant human PAD4 [6] = target: T2, recombinant human PAD4; remark: listed apart in the source
recombinant human PAD2 [7] = target: T1, recombinant human PAD2; remark: listed apart in the source
recombinant human PAD4 [8] = target: T2, recombinant human PAD4; remark: listed apart in the source
recombinant human PAD2 [9] = target: T1, recombinant human PAD2; remark: listed apart in the source
recombinant human PAD4 [10] = target: T2, recombinant human PAD4; remark: listed apart in the source

B1: G-D-O(CA)-G-S (peptide)
peptide: GD[O(CA)]GS
IC50 values (µM), ABAP PAD activity assay, second round (recombinant human PAD2 [1]): 38 µM | IC50 values (µM), ABAP PAD activity assay, second round (recombinant human PAD4 [2]): 60 µM

B4: 0837-30FA (peptide)
peptide: 2Naphthylsulfonyl-KWH[Orn(fluoroacetimidoyl)]DFF-NH2
SMILES: N=C(CF)NCCC[C@H](NC(=O)[C@H](Cc1c[nH]cn1)NC(=O)[C@H](Cc1c[nH]c2ccccc12)NC(=O)[C@H](CCCCN)NS(=O)(=O)c1ccc2ccccc2c1)C(=O)N[C@@H](CC(=O)O)C(=O)N[C@@H](Cc1ccccc1)C(=O)N[C@@H](Cc1ccccc1)C(N)=O
Inhibition of PAD2: value at 10 µM inhibitor (0 µM: 76) (recombinant human PAD2 [5]): 9% | Inhibition of PAD2: value at 20 µM inhibitor (0 µM: 76) (recombinant human PAD2 [5]): 3% | Inhibition of PAD2: value at 40 µM inhibitor (0 µM: 76) (recombinant human PAD2 [5]): 2% | Inhibition of PAD2: value at 80 µM inhibitor (0 µM: 76) (recombinant human PAD2 [5]): 1% | Inhibition of PAD4: value at 10 µM inhibitor (0 µM: 67) (recombinant human PAD4 [6]): 37% | Inhibition of PAD4: value at 20 µM inhibitor (0 µM: 67) (recombinant human PAD4 [6]): 24% | Inhibition of PAD4: value at 40 µM inhibitor (0 µM: 67) (recombinant human PAD4 [6]): 13% | Inhibition of PAD4: value at 80 µM inhibitor (0 µM: 67) (recombinant human PAD4 [6]): 7%

B5: 0748-01FA (peptide)
peptide: Ac-HFD[Orn(fluoroacetimidoyl)]EWI-NH2
SMILES: CC[C@H](C)[C@H](NC(=O)[C@H](Cc1c[nH]c2ccccc12)NC(=O)[C@H](CCC(=O)O)NC(=O)[C@H](CCCNC(=N)CF)NC(=O)[C@H](CC(=O)O)NC(=O)[C@H](Cc1ccccc1)NC(=O)[C@H](Cc1c[nH]cn1)NC(C)=O)C(N)=O
conversion of 0708-30 by PAD2, 10 µM inhibitor (0 µM: 68) (recombinant human PAD2 [7]): 67% | conversion of 0708-30 by PAD2, 50 µM inhibitor (0 µM: 68) (recombinant human PAD2 [7]): 36% | conversion of 0708-30 by PAD2, 100 µM inhibitor (0 µM: 68) (recombinant human PAD2 [7]): 21% | conversion of 0708-30 by PAD4, 10 µM inhibitor (0 µM: 81) (recombinant human PAD4 [8]): 50% | conversion of 0708-30 by PAD4, 50 µM inhibitor (0 µM: 81) (recombinant human PAD4 [8]): 25% | conversion of 0708-30 by PAD4, 100 µM inhibitor (0 µM: 81) (recombinant human PAD4 [8]): 12%

B6: 0741-03FA (peptide)
peptide: Ac-FFDSHKFD[Orn(fluoroacetimidoyl)]DFIYSD-NH2
SMILES: CC[C@H](C)[C@H](NC(=O)[C@H](Cc1ccccc1)NC(=O)[C@H](CC(=O)O)NC(=O)[C@H](CCCNC(=N)CF)NC(=O)[C@H](CC(=O)O)NC(=O)[C@H](Cc1ccccc1)NC(=O)[C@H](CCCCN)NC(=O)[C@H](Cc1c[nH]cn1)NC(=O)[C@H](CO)NC(=O)[C@H](CC(=O)O)NC(=O)[C@H](Cc1ccccc1)NC(=O)[C@H](Cc1ccccc1)NC(C)=O)C(=O)N[C@@H](Cc1ccc(O)cc1)C(=O)N[C@@H](CO)C(=O)N[C@@H](CC(=O)O)C(N)=O
conversion of 0708-30 by PAD2, 10 µM inhibitor (recombinant human PAD2 [9]): 39% | conversion of 0708-30 by PAD2, 50 µM inhibitor (recombinant human PAD2 [9]): 13% | conversion of 0708-30 by PAD2, 100 µM inhibitor (recombinant human PAD2 [9]): 6% | conversion of 0708-30 by PAD4, 10 µM inhibitor (recombinant human PAD4 [10]): 45% | conversion of 0708-30 by PAD4, 50 µM inhibitor (recombinant human PAD4 [10]): 12% | conversion of 0708-30 by PAD4, 100 µM inhibitor (recombinant human PAD4 [10]): 9%

B7: 0837-13FA (peptide)
peptide: Ac-KFD[Orn(fluoroacetimidoyl)]DFI[AEEA]-NH2
SMILES: CC[C@H](C)[C@H](NC(=O)[C@H](Cc1ccccc1)NC(=O)[C@H](CC(=O)O)NC(=O)[C@H](CCCNC(=N)CF)NC(=O)[C@H](CC(=O)O)NC(=O)[C@H](Cc1ccccc1)NC(=O)[C@H](CCCCN)NC(C)=O)C(=O)NCCOCCOCC(N)=O
Inhibition of PAD2: value at 10 µM inhibitor (0 µM: 74) (recombinant human PAD2 [5]): 43% | Inhibition of PAD2: value at 20 µM inhibitor (0 µM: 74) (recombinant human PAD2 [5]): 30% | Inhibition of PAD2: value at 40 µM inhibitor (0 µM: 74) (recombinant human PAD2 [5]): 20% | Inhibition of PAD2: value at 80 µM inhibitor (0 µM: 74) (recombinant human PAD2 [5]): 11% | Inhibition of PAD4: value at 10 µM inhibitor (0 µM: 71) (recombinant human PAD4 [6]): 48% | Inhibition of PAD4: value at 20 µM inhibitor (0 µM: 71) (recombinant human PAD4 [6]): 33% | Inhibition of PAD4: value at 40 µM inhibitor (0 µM: 71) (recombinant human PAD4 [6]): 23% | Inhibition of PAD4: value at 80 µM inhibitor (0 µM: 71) (recombinant human PAD4 [6]): 16%

B8: 0837-14FA (peptide)
peptide: Ac-KWH[Orn(fluoroacetimidoyl)]DFF[AEEA]-NH2
SMILES: CC(=O)N[C@@H](CCCCN)C(=O)N[C@@H](Cc1c[nH]c2ccccc12)C(=O)N[C@@H](Cc1c[nH]cn1)C(=O)N[C@@H](CCCNC(=N)CF)C(=O)N[C@@H](CC(=O)O)C(=O)N[C@@H](Cc1ccccc1)C(=O)N[C@@H](Cc1ccccc1)C(=O)NCCOCCOCC(N)=O
Inhibition of PAD2: value at 10 µM inhibitor (0 µM: 76) (recombinant human PAD2 [5]): 38% | Inhibition of PAD2: value at 20 µM inhibitor (0 µM: 76) (recombinant human PAD2 [5]): 24% | Inhibition of PAD2: value at 40 µM inhibitor (0 µM: 76) (recombinant human PAD2 [5]): 14% | Inhibition of PAD2: value at 80 µM inhibitor (0 µM: 76) (recombinant human PAD2 [5]): 8% | Inhibition of PAD4: value at 10 µM inhibitor (0 µM: 67) (recombinant human PAD4 [6]): 54% | Inhibition of PAD4: value at 20 µM inhibitor (0 µM: 67) (recombinant human PAD4 [6]): 39% | Inhibition of PAD4: value at 40 µM inhibitor (0 µM: 67) (recombinant human PAD4 [6]): 29% | Inhibition of PAD4: value at 80 µM inhibitor (0 µM: 67) (recombinant human PAD4 [6]): 21%

Second part, the binder after the results:

IC50 values (µM), ABAP PAD activity assay (recombinant human PAD2 [3]): 18 µM | IC50 values (µM), ABAP PAD activity assay (recombinant human PAD4 [4]): 443 µM
B2: G-S-O(FA)-D-G (peptide)
peptide: GS[Orn(fluoroacetimidoyl)]DG

IC50 values (µM), ABAP PAD activity assay (recombinant human PAD2 [3]): 76 µM | IC50 values (µM), ABAP PAD activity assay (recombinant human PAD4 [4]): 189 µM
B3: G-D-O(CA)-S-G (peptide)
peptide: GD[O(CA)]SG

IC50 values (µM), ABAP PAD activity assay (recombinant human PAD2 [3]): 172 µM | IC50 values (µM), ABAP PAD activity assay (recombinant human PAD4 [4]): 816 µM
B9: G-S-O(CA)-D-G (peptide)
peptide: GS[O(CA)]DG

Source: patent publication US20110142868A1 (CHIRALIX B V, published 2011)
